# Results reported in article PMC2649033, “Comparison between the HCV IRES domain IV RNA structure and the Iron Responsive Element”.
# T1: hIRP1 (GST fusion) (human, UniProt P21399 1-889)
# T1 sequence: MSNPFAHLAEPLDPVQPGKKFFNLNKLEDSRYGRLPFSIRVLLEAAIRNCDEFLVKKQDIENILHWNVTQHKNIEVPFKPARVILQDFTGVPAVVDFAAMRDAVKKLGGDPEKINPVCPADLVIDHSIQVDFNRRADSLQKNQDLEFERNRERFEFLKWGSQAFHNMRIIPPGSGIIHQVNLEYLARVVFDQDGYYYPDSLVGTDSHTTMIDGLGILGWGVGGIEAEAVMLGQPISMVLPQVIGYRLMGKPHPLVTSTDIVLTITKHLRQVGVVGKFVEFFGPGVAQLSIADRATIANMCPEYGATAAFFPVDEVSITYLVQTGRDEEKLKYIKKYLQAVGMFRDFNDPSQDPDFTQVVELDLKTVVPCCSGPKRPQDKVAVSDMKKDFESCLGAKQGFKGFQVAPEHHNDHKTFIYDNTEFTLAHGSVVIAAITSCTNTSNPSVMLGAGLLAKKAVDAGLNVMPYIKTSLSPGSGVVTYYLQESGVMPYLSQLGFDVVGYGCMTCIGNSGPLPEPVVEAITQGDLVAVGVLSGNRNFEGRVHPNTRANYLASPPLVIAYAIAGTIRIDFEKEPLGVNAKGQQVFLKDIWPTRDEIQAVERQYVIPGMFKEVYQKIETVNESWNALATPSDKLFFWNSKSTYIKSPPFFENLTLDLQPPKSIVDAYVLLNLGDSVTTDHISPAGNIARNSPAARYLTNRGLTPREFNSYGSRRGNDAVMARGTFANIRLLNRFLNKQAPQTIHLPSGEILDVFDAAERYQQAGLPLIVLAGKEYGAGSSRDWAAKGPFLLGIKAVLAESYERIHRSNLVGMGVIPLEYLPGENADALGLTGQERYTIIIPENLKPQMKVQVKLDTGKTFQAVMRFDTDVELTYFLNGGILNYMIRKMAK
# Legend:
# Conditions in all cases: protein: recombinant; label: 32P-CTP; hairpin
# hIRP1 (GST fusion) [1] = target: T1, hIRP1 (GST fusion); assay: EMSA; 2 mM Mg2+; 5.2 nM RNA; mean of 3 experiments; 10 mM HEPES pH 7.6, 2 mM MgCl2, 40 mM KCl, 5% glycerol, 1 mM DTT, 20 uL, room temperature 30 min, […] (7%/14%) […]
# hIRP1 (GST fusion) [2] = target: T1, hIRP1 (GST fusion); assay: EMSA; 2 mM Mg2+; 5.2 nM RNA; data not shown; 10 mM HEPES pH 7.6, 2 mM MgCl2, 40 mM KCl, 5% glycerol, 1 mM DTT, 20 uL, room temperature 30 min, […] (7%/14%) […]
# hIRP1 (GST fusion) [3] = target: T1, hIRP1 (GST fusion); assay: EMSA; 240 ng hIRP1; also bound at 100 ng; approx. equal to ET1+2+3; 10 mM HEPES pH 7.6, 2 mM MgCl2, 40 mM KCl, 5% glycerol, 1 mM DTT, 20 uL, room temperature 30 min, then heparin 0.63 ug/uL 10 min; native PAGE (7%/14%) in 0.5x TBE
# hIRP1 (GST fusion) [4] = target: T1, hIRP1 (GST fusion); assay: EMSA; 240 ng hIRP1; 10 mM HEPES pH 7.6, 2 mM MgCl2, 40 mM KCl, 5% glycerol, 1 mM DTT, 20 uL, room temperature 30 min, […] (7%/14%) […]
# hIRP1 (GST fusion) [5] = target: T1, hIRP1 (GST fusion); assay: EMSA; 240 ng hIRP1; 10 mM HEPES pH 7.6, 2 mM MgCl2, 40 mM KCl, 5% glycerol, 1 mM DTT, 20 uL, room temperature 30 min, then heparin 0.63 ug/uL 10 min; native PAGE (7%/14%) in 0.5x TBE
binder,measurement,setting,value
GACCGUGCCCAUGAGCACGUC (structured_RNA) [ET2+3],Kd,hIRP1 (GST fusion) [1],54 ± 13 nM
GACCGUGCCCGUGAGCACGUC (structured_RNA) [ET1+2+3],Kd,hIRP1 (GST fusion) [2],~0.05 nM
GUUCGUCCUCAGUGCAGGGCAAC (structured_RNA) [eALAS IRE],binding result,hIRP1 (GST fusion) [3],binds
GACCGUGCACCGUGAGCACGAAUC (structured_RNA) [ET1],binding result,hIRP1 (GST fusion) [4],no binding
GACCGUGCACCAUGAGCACGAAUC (structured_RNA) [HCV IRES dIV wild type],binding result,hIRP1 (GST fusion) [4],no binding
GUUCGUCCUGCUCCGAGGGCAAC (structured_RNA) [IRE (-) negative control],binding result,hIRP1 (GST fusion) [5],no binding
